Reference: PMC3339974 (The Journal of Biological Chemistry, 2012)
Each block holds one molecule with its values, some of them ahead of it.

How the values were obtained:
[1] = target: soluble mouse CD3ϵ ectodomain homodimer (mouse) (UniProt P22646)
[2] = target: T1, soluble mouse CD3ϵ ectodomain homodimer (Mus musculus (strain )); experiment: crystal structure
T1 chain: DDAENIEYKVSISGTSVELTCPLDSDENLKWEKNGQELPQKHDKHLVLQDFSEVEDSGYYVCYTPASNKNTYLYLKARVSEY

- stoichiometry N [1]: 2
Molecule: soluble mouse CD3ϵ ectodomain homodimer (from UniProt P22646 23-108) (domain or fragment)

- binding result [2]: binds
B1: 2C11 Fab (Fab, V domains shown)
VH: EVQLVESGGGLVQPGKSLKLSCEASGFTFSGYGMHWVRQAPGRGLESVAYITSSSINIKYADAVKGRFTVSRDNAKNLLFLQMNILKSEDTAMYYCARFDWDKNYWGQGTMVTVSS
VL: DIQMTQSPSSLPASLGDRVTINCQASQDISNYLNWYQQKPGKAPKLLIYYTNKLADGVPSRFSGSGSGRDSSFTISSLESEDIGSYYCQQYYNYPWTFGPGTKLEIK
